Data set [1] has as its target FBP full length (CMV expression) (Homo sapiens) (UniProt Q96AE4). Kind of data set: cell_activity. The settings on record: CAT activation vs empty vector, U937 cells.
In data set [2] the target is GST alone (UniProt P08515 P08515:1-218). Kind of data set: EMSA; GST control. Particulars: tags: pGEX-2T without insert; label: 5'-32P. How it is done: Purified recombinant proteins were incubated with double stranded, ^32P labeled, oligonucleotide (Probe) in the presence or absence of the indicated quantity of unlabeled, double stranded oligonucleotide as competitor, and subjected to EMSA. (M. Fried and D. M. Crothers, *Nucleic Acids Res.* 9, 6505 (1981)).
DNA binding assays were performed with an equivalent amount of GST-FBP or GST alone incubated in 25 mM Tris, 200 mM Glycine, 1 mM EDTA, 0.5 mg/ml BSA, 0.1% Tween20, 10% glycerol, 100 µg/ml poly(dI:dC), and 0.2 ng of labeled probe. The probe was prepared by annealing two complementary synthetic oligonucleotides and 5' end labeling with T_4 polynucleotide kinase in the presence of γ-^32P-ATP. The top strand of the FUSE oligonucleotide was 5'-[…]-3'(SEQ ID NO: 11). The top strand of Mut A was 5'-GATCACAActacgtgctaggacgccGAATATAG-3' (SEQ ID NO: 12) (lower case indicates changes from FUSE oligomer sequence). The top strand of CRE was 5'-[…]-3' (SEQ ID NO: 13). The top strand of CTE was 5'-[…]-3' (SEQ ID NO: 14). Reaction mixtures were incubated 30 minutes at room temperature and protein-DNA complexes resolved by electrophoresis on a 4.2% acrylamide gel in 25 mM Tris, 200 mM Glycine, 1 mM EDTA buffer.

The target of data set [3] is GST-FBP 278-511 (Homo sapiens, UniProt Q96AE4 SEQ:278-511). Put plainly: EMSA; same specificity as full length (FIG. 6C). Particulars: tags: N-terminal GST (pGEX-1); C-terminal KEIEQKVQE; label: 5'-32P. Background: A gel shift assay detects complexes by their altered migration in electrophoresis.
Data set [4] concerns the target GST-FBP 278-511 insertion mutant 7 (Homo sapiens, UniProt Q96AE4 SEQ:278-511, insertion RIR after 373). Put plainly: EMSA. Particulars: tags: N-terminal GST; C-terminal KEIEQKVQE; label: 5'-32P.
Data set [5] addresses GST-FBP 278-372 (Homo sapiens, UniProt Q96AE4 SEQ:278-372). Put plainly: EMSA. Particulars: tags: N-terminal GST; label: 5'-32P.
For data set [6], the target named is GST-FBP 278-511 insertion mutant 2 (Homo sapiens, UniProt Q96AE4 SEQ:278-511, insertion IGSRIR after M297). Kind of data set: EMSA. The settings on record: tags: N-terminal GST; C-terminal KEIEQKVQE; label: 5'-32P.
The target in data set [7] is GST-FBP 278-511 insertion mutant 5 (Homo sapiens, UniProt Q96AE4 SEQ:278-511, insertion GIP after 336). Put plainly: EMSA. The settings on record: tags: N-terminal GST; C-terminal KEIEQKVQE; label: 5'-32P.
Data set [8] concerns the target GST-FBP 278-474 (Homo sapiens, UniProt Q96AE4 SEQ:278-474). Kind of data set: EMSA. Particulars: tags: N-terminal GST; label: 5'-32P.
Data set [9] concerns the target GST-FBP 278-511 insertion mutant 9 (Homo sapiens, UniProt Q96AE4 SEQ:278-511, insertion RGSG with deletion of P after 475). Put plainly: EMSA. The settings on record: tags: N-terminal GST; C-terminal KEIEQKVQE; label: 5'-32P.
For data set [10], the target named is GST-FBP 278-511 insertion mutant 4 (Homo sapiens, UniProt Q96AE4 SEQ:278-511, Q333 replaced by PRIRE). Kind of data set: EMSA. The settings on record: tags: N-terminal GST; C-terminal KEIEQKVQE; label: 5'-32P.
For data set [11], the target named is GST-FBP 278-511 insertion mutant 8 (Homo sapiens, UniProt Q96AE4 SEQ:278-511, insertion RDPA with deletion of QS after 404). Put plainly: EMSA. The settings on record: tags: N-terminal GST; C-terminal KEIEQKVQE; label: 5'-32P.
For data set [12], the target named is GST-FBP 278-511 insertion mutant 1 (Homo sapiens, UniProt Q96AE4 SEQ:278-511, insertion RIR between GST and FBP). Put plainly: EMSA. Particulars: tags: N-terminal GST; C-terminal KEIEQKVQE; label: 5'-32P.
Data set [13] has as its target GST-FBP 278-511 insertion mutant 3 (Homo sapiens, UniProt Q96AE4 SEQ:278-511, insertion IRIR after M297). Put plainly: EMSA. The settings on record: tags: N-terminal GST; C-terminal KEIEQKVQE; label: 5'-32P.
In data set [14] the target is GST-FBP 298-511 (Homo sapiens, UniProt Q96AE4 SEQ:298-511). Kind of data set: EMSA. The settings on record: tags: N-terminal GST; C-terminal KEIEQKVQE; label: 5'-32P.

In turn, myc-CAT reporter with FUSE registered an activity in [1] of 5 fold.

B1: FUSE (dsDNA)
DNA 1: GATCACAAAATAAAAAATCCCGAGGGAATATAG
DNA 2: CTATATTCCCTCGGGATTTTTTATTTTGTGATC
On to B1, for which the binding result in data set [2] is listed as “no binding”; in [3], “binds”; in data set [4], “binds”; in data set [5], “no binding”; in [6] it was “no binding”; in data set [7], “no binding”. Besides, the binding result in data set [8] is listed as “binds”; in data set [9] it was “binds”; in data set [10], “no binding”; in data set [11], “no binding”; in data set [12] it was “binds”; in data set [13], “no binding”. Besides, the binding result in [14] is given as “no binding”.
